Measurements reported in patent US20090143724A1, “Microprojection Array Immunization Patch and Method” (Alza Corporation, priority 2001, published 2009).

Columns and labels:
[1] = test system: hairless guinea pigs (HGPs); assay: Immunization of hairless guinea pigs with OVA; anti-OVA IgG titers by ELISA; format: in vivo, hairless guinea pig; details: for Increase in antibody titer over non-adjuvant controls: about 1 μg OVA with 15 μg GMDP, one week after booster
Method: Baseline blood samples were obtained from all animals before the day of immunization. On the day of immunization, the HGPs were anesthetized and the treatment sites were cleaned with 70% isopropyl alcohol and allowed to dry. For immunizations performed by needle injection, OVA was dissolved in sterile water. Sterile 1-mL syringes with 25-gauge needles (Becton Dickinson, Franklin Lakes, N.J.) were used. ID and SC injections were performed on the dorsal-lateral area of HGPs. The quadriceps muscle of the hind leg was used for IM injection. Microprojection arrays containing dry-coated OVA were applied as described above.
Each HGP received a primary immunization (Day 0) followed by a secondary (i.e., booster) immunization 4 weeks later with an identical article. After primary immunization, HGPs were anesthetized and blood was collected from the anterior vena cava. The serum samples were evaluated by immunoassay for the presence of anti-OVA antibodies.
Sera from nonimmunized and immunized HGPs were tested for the presence of antibodies to OVA by enzyme-linked immunosorbent assay (ELISA). Briefly, 96-well polystyrene plates (Maxisorp, NUNC, Rochester, N.Y.) were coated with 0.1 muwell of OVA (10 μg/mL in 0.2 M Na bicarbonate/carbonate buffer, pH 9.6) and incubated overnight at 4° C. The plates were washed with PBS-Tween buffer then blocked with 200 μL of PBS/casein (0.5%)/Tween-20 (0.05%) buffer for 1 hour at room temperature. Then the plates were again washed and the test sera were added (100 μL/well at 2- to 5-fold serial dilutions, three replicates, 1 hour at room temperature). After washing, 100 μL peroxidase conjugated goat anti-guinea pig IgG antibody (Jackson ImmunoResearch Laboratories, West Grove, Pa.) was added and incubated for 1 hour at room temperature. After incubation, the plates were washed, 100 μL of substrate (ABTS, Becton Dickinson, Franklin Lakes, N.J.) was added, and they were incubated for 35 minutes at room temperature. Absorbance ([…]) was measured using a SpectraMAX 250 (Molecular Devices Corporation, Sunnyvale, Calif.). The results are expressed as endpoint antibody titers relative to nonimmunized control sera samples.
Results are presented as the mean with its associated standard error of the mean. Comparison between groups was performed by analysis of variance (ANOVA).

hairless guinea pigs = assay: Example 2: immunization with tip-coated arrays; anti-ovalbumin IgG titer by ELISA; format: in vivo, hairless guinea pig; details: tip-coated array patch, 5 seconds wearing; two and three weeks after primary immunization; six animals
Method: Identical microprojection arrays were coated with untagged ovalbumin using a similar methodology. The amount of protein coated on the arrays was evaluated by total protein assay. The target dose of 5 μg of ovalbumin (OVA) was coated with acceptable reproducibility (4.6±0.5 μg) using a 20 wt % OVA coating solution. Immunization studies were conducted with these arrays in one group of six hairless guinea pigs. Systems and system application in animals was the same as described above except that the wearing time in all guinea pigs was 5 seconds. Three additional groups of animals received intradermal injections of 0.1, 1.0, and 10 μg ovalbumin. Blood samples were taken at various time intervals and evaluated for antibody (IgG) titer against ovalbumin by ELISA.

[2] = OVA delivery into hairless guinea pig skin from dry-coated microprojection arrays (skin biopsy fluorometry); format: in vivo; details: for Amount of ovalbumin delivered: 2 cm^2 array applied 5 seconds on HGP skin, n=3, mean ± SEM; for OVA delivered into the skin: 2 cm^2 device coated with 20% OVA solution
From the text: The treatment sites (lateral area of the thorax) of anesthetized HGPs were cleaned with isopropyl alcohol wipes (70%) and allowed to dry. The skin site was lightly stretched manually when the system was applied using an impact applicator. Following application, the stretching tension was released and the system was left on the skin for the specified period of time. For devices left on skin for more than 5 seconds, the HGPs were wrapped with Vetwrap® (3M, St Paul, Minn.) and individually housed.
Each HGP received a dry-coated FITC-OVA microprojection array, which was applied as described above. Following system removal, the treated skin sites were thoroughly washed with 70% isopropyl alcohol to remove any residual OVA on the skin surface. The HGPs were euthanized and 8-mm skin biopsies were taken. Each tissue sample was placed in a scintillation vial with 0.1 mL deionized water. Hyamine hydroxide (0.9 mL, 1 M in methanol, JT Baker, Phillipsburg, N.J.) was then added, and the samples were incubated overnight at 60° C. Thereafter, the dissolved material was further diluted with 2 mL hyamine hydroxide/water (9:1), and fluorescence was quantitated by fluorometry and compared to known standards. Background control samples included untreated skin. A minimum replicate of three was used for each experimental condition.

[3] = Example 2: ovalbumin delivery into hairless guinea pig skin from tip-coated arrays; format: in vivo; details: for Delivery efficiency: tip-coated arrays
From the text: Some of these microprojection arrays were applied to hairless guinea pigs (three animals per group) for evaluation of ovalbumin delivery into the skin. The skin of the animal flank was stretched manually bilaterally ( ? and ? ) at the time of application of the system. […] The system applied comprised an ovalbumin coated microprojection array, adhered to the center of a low density polyethylene film backing with an acrylate adhesive (7 cm^2 disc). Following application, the stretching tension was released and the system was removed after 5 seconds or 1 hour contact with the skin. Following removal of the system, residual drug was thoroughly washed from the skin and an 8 mm skin biopsy was taken at the location of the application. The total amount of ovalbumin delivered in the skin was determined by dissolving the skin biopsy in hyamine hydroxide (1M in methanol). Quantitation was performed by fluorimetry. […] Delivery efficiency was also found to be relatively independent of the thickness of the coating.

[4] = 1 μg OVA, 1 week after booster immunization

## ovalbumin [model protein antigen (Grade V, SIGMA); FITC-labeled form used for coating and delivery quantitation]
[1]; [4]
  Antibody level, microprojection array relative to IM injection: 50 fold
  Antibody level, microprojection array relative to SC injection: 10 fold
[1]; 5 μg OVA, 1 week after booster immunization
  Antibody titer, microprojection array relative to IM needle administration: 24 fold
[1]; 1 and 5 μg doses of OVA
  Antibody response, microprojection array relative to subcutaneous or intramuscular administration: up to 50 fold
  Antibody response, microprojection array versus intradermal administration: equivalent
[1]; 20 or 80 μg OVA, 1 week after booster immunization
  Antibody titers, microprojection array versus conventional ID, SC or IM injection: comparable
Hairless guinea pigs
  Development of anti-ovalbumin IgG antibodies: all animals dosed with the microprojection array patch had developed anti-ovalbumin IgG antibodies

## CC(=O)NC1C(OC2C(CO)OC(O)C(NC(C)=O)C2OC(C)C(=O)N[C@@H](C)C(=O)N[C@H](CCC(N)=O)C(=O)O)OC(CO)C(O)C1O (stereo partly drawn) [GMDP, N-acetylglucosamine-(β1-4)-N-acetylmuramyl-L-alanyl-D-glutamine, reference compound]
[2]; OVA and GMDP dry-coated arrays, data not shown
  Effect of the adjuvant on the amount of OVA delivered: did not significantly affect the amount of OVA delivered
[1]; 1 μg OVA with about 15 μg GMDP by microprojection array
  Antibody titers with arrays delivering GMDP and OVA versus OVA alone (dose-sparing): approached the titer levels achieved with OVA doses of 20 μg or greater in the absence of GMDP
[1]; ID administration
  Increase in antibody titer over non-adjuvant controls: 250%
[1]; microprojection array administration
  Increase in antibody titer over non-adjuvant controls: 1300%

B1: ovalbumin (protein, UniProt P01012 2-386, looked up)
Ovalbumin: GSIGAASMEFCFDVFKELKVHHANENIFYCPIAIMSALAMVYLGAKDSTRTQINKVVRFDKLPGFGDSIEAQCGTSVNVHSSLRDILNQITKPNDVYSFSLASRLYAEERYPILPEYLQCVKELYRGGLEPINFQTAADQARELINSWVESQTNGIIRNVLQPSSVDSQTAMVLVNAIVFKGLWEKAFKDEDTQAMPFRVTEQESKPVQMMYQIGLFRVASMASEKMKILELPFASGTMSMLVLLPDEVSGLEQLESIINFEKLTEWTSSNVMEERKIKVYLPRMKMEEKYNLTSVLMAMGITDVFSSSANLSGISSAESLKISQAVHAAHAEINEAGREVVGSAEAGVDAASVSEEFRADHPFLFCIKHIATNAVLFFGRCVSP
modifications: FITC label (in one form)
notes: model protein antigen (Grade V, SIGMA); FITC-labeled form used for coating and delivery quantitation
[3]; tip-coated 2 cm^2 arrays, 5 second or 1 hour wearing
  OVA delivered into hairless guinea pig skin: up to 4.5 μg
[3]; 5 second wearing time
  Delivery efficiency: higher than 55%
[3]; 1 hour wearing time
  Delivery efficiency: > 85%
[2]; 1% coating concentration
  Amount of ovalbumin delivered: about 1 μg/cm^2
[2]; 1% coating concentration, listed as Ovalbumin
  Amount of ovalbumin delivered: 0.9 ± 0.1 μg/cm^2
[2]; 30 minute application
  OVA delivered into the skin: 50 µg
[2]; 1 hour application
  OVA delivered into the skin: approximately 80 μg
[2]; 5% coating concentration
  Amount of ovalbumin delivered: ~6 μg/cm^2
[2]; 5% coating concentration, listed as Ovalbumin
  Amount of ovalbumin delivered: 5.8 ± 1.4 μg/cm^2
[2]; 20% coating concentration
  Amount of ovalbumin delivered: ~10 μg/cm^2
[2]; 20% coating concentration, listed as Ovalbumin
  Amount of ovalbumin delivered: 9.9 ± 0.6 μg/cm^2
[2]; Delivery condition I: 1% coating, wearing time 5 seconds, surface area 1 cm^2
  Approximate dose delivered: ~1 µg
[2]; Delivery condition II: 5% coating, wearing time 5 seconds, surface area 1 cm^2
  Approximate dose delivered: ~5 µg
[2]; Delivery condition III: 20% coating, wearing time 5 seconds, surface area 2 cm^2
  Approximate dose delivered: ~20 µg
[2]; Delivery condition IV: 20% coating, wearing time 3600 seconds, surface area 2 cm^2
  Approximate dose delivered: ~80 µg
[2]; array coated from OVA (1%) and GMDP (10%)
  OVA delivered from arrays dry-coated with OVA and GMDP: approximately 1 μg
[1]; 20 or 80 μg OVA by microprojection array, 2 weeks after primary immunization
  Seroconversion after primary immunization: seroconverted by 2 weeks after the primary immunization
[1]; OVA by microprojection array, all doses tested (1, 5, 20, 80 μg)
  Seroconversion after booster immunization: All animals had seroconverted
